Measurements from patent publication US20220305006.

Target: recombinant sAPPα, human, amino acids 19-613 (UniProt P05067)
Sequence (P05067 19-613): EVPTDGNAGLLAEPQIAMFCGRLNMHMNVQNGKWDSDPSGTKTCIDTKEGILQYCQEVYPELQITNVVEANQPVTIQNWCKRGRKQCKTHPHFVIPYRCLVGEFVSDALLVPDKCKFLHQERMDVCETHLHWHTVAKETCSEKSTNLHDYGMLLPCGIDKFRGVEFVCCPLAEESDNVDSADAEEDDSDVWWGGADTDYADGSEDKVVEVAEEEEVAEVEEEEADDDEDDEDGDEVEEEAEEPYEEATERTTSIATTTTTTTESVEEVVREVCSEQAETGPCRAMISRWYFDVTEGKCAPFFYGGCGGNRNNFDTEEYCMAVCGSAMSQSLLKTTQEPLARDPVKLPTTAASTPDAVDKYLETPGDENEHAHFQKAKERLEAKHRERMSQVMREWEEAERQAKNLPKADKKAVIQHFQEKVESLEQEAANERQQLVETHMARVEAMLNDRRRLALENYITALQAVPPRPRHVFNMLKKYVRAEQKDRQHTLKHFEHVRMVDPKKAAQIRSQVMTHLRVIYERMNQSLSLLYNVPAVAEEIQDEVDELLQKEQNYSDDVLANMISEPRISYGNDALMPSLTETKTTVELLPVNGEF

Recombinant Human Cathepsin D, sequence (chain, as listed by the source): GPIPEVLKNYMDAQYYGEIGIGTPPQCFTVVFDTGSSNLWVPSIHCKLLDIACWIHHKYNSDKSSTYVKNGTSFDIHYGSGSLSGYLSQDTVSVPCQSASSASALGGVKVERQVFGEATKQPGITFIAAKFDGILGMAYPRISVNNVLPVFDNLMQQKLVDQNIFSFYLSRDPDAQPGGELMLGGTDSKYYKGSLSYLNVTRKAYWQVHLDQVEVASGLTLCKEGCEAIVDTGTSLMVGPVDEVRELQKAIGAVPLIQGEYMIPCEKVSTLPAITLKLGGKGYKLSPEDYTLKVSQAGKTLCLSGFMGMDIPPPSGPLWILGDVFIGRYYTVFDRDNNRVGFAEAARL

With Recombinant Human Cathepsin D the “Cat D activity (fluorogenic substrate)” value was “sAPPα elicited no inhibition of Cat D activity”.
